Earlier results, collected in PMC12990809.

Legend:
Assay in all cases: pulldown
Details in all cases: 20 nM protein, 1.5 uM RNA pool; 20 mM HEPES pH 7.8, 70 mM KCl, 10 mM NaCl, 10% glycerol, 2 mM DTT, 0.1 ug/uL BSA; 30 min, 4 C (protocol of this paper; not …); cited from earlier work
[1] = target: T1, Rbp1-like (Drosophila melanogaster) (UniProt M9MS48)
T1 sequence: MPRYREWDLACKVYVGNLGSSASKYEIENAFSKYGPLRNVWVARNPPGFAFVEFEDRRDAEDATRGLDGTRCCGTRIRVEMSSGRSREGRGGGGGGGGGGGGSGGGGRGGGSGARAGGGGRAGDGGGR

[2] = target: Rbp9 (Drosophila melanogaster) (UniProt A2RVE5)
Rbp9 (Drosophila melanogaster), sequence (A2RVE5 entry or part of it): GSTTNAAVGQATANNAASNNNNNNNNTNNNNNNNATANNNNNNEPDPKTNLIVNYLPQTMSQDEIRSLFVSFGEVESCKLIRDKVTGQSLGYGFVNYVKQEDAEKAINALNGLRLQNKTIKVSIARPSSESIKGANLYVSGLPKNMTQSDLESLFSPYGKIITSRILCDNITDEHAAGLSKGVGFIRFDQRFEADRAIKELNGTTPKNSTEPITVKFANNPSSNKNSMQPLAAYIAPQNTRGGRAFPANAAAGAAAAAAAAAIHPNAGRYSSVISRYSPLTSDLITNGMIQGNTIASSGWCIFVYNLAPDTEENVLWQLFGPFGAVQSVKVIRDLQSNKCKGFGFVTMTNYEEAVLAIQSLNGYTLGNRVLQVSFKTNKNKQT

[3] = target: T2, Syp G309D (Drosophila melanogaster) (UniProt Q7KSA0)
T2 sequence: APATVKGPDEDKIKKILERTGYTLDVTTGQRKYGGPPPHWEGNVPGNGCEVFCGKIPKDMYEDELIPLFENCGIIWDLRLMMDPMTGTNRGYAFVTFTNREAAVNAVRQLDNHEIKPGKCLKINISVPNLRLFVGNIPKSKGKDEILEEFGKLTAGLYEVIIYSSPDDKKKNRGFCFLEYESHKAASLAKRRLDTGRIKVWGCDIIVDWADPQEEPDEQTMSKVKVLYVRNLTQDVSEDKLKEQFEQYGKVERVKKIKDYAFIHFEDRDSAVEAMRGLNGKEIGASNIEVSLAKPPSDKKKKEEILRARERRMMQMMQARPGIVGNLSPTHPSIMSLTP

[4] = target: T3, cpo (Drosophila melanogaster) (UniProt Q01617)
T3 sequence: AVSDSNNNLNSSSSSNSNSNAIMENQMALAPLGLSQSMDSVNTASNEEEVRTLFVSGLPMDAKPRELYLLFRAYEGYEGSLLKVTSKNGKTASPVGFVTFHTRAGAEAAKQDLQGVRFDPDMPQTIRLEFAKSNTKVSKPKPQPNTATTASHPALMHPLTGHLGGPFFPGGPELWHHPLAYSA

CAUCAUCG [RNAcompete motif RNCMPT00127]
binding signal (z-score (mean of top ten 7-mers)) [1]: 10.7

UUUNGUU [RNAcompete motif RNCMPT00132]
binding signal (z-score (mean of top ten 7-mers)) [2]: 15.5

AAAUU [RNAcompete motif RNCMPT00131]
binding signal (z-score (mean of top ten 7-mers)) [3]: 13.5

AGCAC [RNAcompete motif RNCMPT00133]
binding signal (z-score (mean of top ten 7-mers)) [4]: 12.9
